Experimental data reported in the supplement of paper PMC10567573.

B1: C9orf25 (parent)
chain: LARKGSLKNGSMGSPVNQQPKKNN
B2: ZNF263 (parent)
chain: VPGTQVGQGGKLWDPSVQSCKEGL

Variants of: B1
Assay: protein stability index of a GFP-peptide fusion (GPS, HEK-293T) (PSI 1-6); higher = more stable
Details: c terminus: a fixed tail appended
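Also: lentivirally expressed fusions sorted by FACS into six bins by GFP to DsRed ratio, PSI derived from sequencing read proportions per bin multiplied by bin number.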

**Q.** For LARKGSLKNGSMGSPVNQQPKKNK [N24K], which protein stability index is on record?
**A.** 5.08

**Q.** Which protein stability index does the source give for LARKGSLKNGSMGSPVNQQPKKNT [N24T] here?
**A.** 4.83

**Q.** For LARKGSLKNGSMGSPVNQQPKKNY [N24Y], which protein stability index is on record?
**A.** 3.78

**Q.** With LARKGSLKNGSMGSPVNQQPKKNQ [N24Q] as the variant, how does the protein stability index read?
**A.** 4.85

**Q.** For LARKGSLKNGSMGSPVNQQPKKNW [N24W], which protein stability index is on record?
**A.** 3.88

**Q.** With LARKGSLKNGSMGSPVNQQPKKNG [N24G] as the variant, how does the protein stability index read?
**A.** 4.76

**Q.** Which protein stability index does the source give for LARKGSLKNGSMGSPVNQQPKKNP [N24P] here?
**A.** 4.48

**Q.** With LARKGSLKNGSMGSPVNQQPKKNA [N24A] as the variant, how does the protein stability index read?
**A.** 4.52

**Q.** For LARKGSLKNGSMGSPVNQQPKKNH [N24H], which protein stability index is on record?
**A.** 4.79

**Q.** For LARKGSLKNGSMGSPVNQQPKKNV [N24V], which protein stability index is on record?
**A.** 3.85

**Q.** For LARKGSLKNGSMGSPVNQQPKKNL [N24L], which protein stability index is on record?
**A.** 4.76

**Q.** Which protein stability index does the source give for LARKGSLKNGSMGSPVNQQPKKNF [N24F] here?
**A.** 3.96

**Q.** With LARKGSLKNGSMGSPVNQQPKKNC [N24C] as the variant, how does the protein stability index read?
**A.** 4.69

**Q.** With LARKGSLKNGSMGSPVNQQPKKNE [N24E] as the variant, how does the protein stability index read?
**A.** 4.14

**Q.** With LARKGSLKNGSMGSPVNQQPKKNM [N24M] as the variant, how does the protein stability index read?
**A.** 4.02

**Q.** Which protein stability index does the source give for LARKGSLKNGSMGSPVNQQPKKNS [N24S] here?
**A.** 4.7

**Q.** With LARKGSLKNGSMGSPVNQQPKKNR [N24R] as the variant, how does the protein stability index read?
**A.** 4.42

**Q.** Which protein stability index does the source give for LARKGSLKNGSMGSPVNQQPKKND [N24D] here?
**A.** 4.85

**Q.** For LARKGSLKNGSMGSPVNQQPKKNI [N24I], which protein stability index is on record?
**A.** 3.82

**Q.** With LARKGSLKNGSMGSPVNQQPKKWN [N23W] as the variant, how does the protein stability index read?
**A.** 4

**Q.** With LARKGSLKNGSMGSPVNQQPKKQN [N23Q] as the variant, how does the protein stability index read?
**A.** 4.64

**Q.** With LARKGSLKNGSMGSPVNQQPKKYN [N23Y] as the variant, how does the protein stability index read?
**A.** 3.82

**Q.** For LARKGSLKNGSMGSPVNQQPKKTN [N23T], which protein stability index is on record?
**A.** 4.89

**Q.** Which protein stability index does the source give for LARKGSLKNGSMGSPVNQQPKKRN [N23R] here?
**A.** 4.18

**Q.** Which protein stability index does the source give for LARKGSLKNGSMGSPVNQQPKKSN [N23S] here?
**A.** 4.58

**Q.** With LARKGSLKNGSMGSPVNQQPKKVN [N23V] as the variant, how does the protein stability index read?
**A.** 4.59

Variants of: B2
Assay: as above
Details: c terminus: a fixed tail appended

**Q.** With VPGTPVGQGGKLWDPSVQSCKEGL [Q5P] as the variant, how does the protein stability index read?
**A.** 4.33

**Q.** Which protein stability index does the source give for VPGTKVGQGGKLWDPSVQSCKEGL [Q5K] here?
**A.** 4.21

**Q.** With VPGTLVGQGGKLWDPSVQSCKEGL [Q5L] as the variant, how does the protein stability index read?
**A.** 4.17

**Q.** For VPGTTVGQGGKLWDPSVQSCKEGL [Q5T], which protein stability index is on record?
**A.** 4.2

**Q.** Which protein stability index does the source give for VPGTMVGQGGKLWDPSVQSCKEGL [Q5M] here?
**A.** 3.79

**Q.** For VPGTNVGQGGKLWDPSVQSCKEGL [Q5N], which protein stability index is on record?
**A.** 4.23

**Q.** Which protein stability index does the source give for VPGTGVGQGGKLWDPSVQSCKEGL [Q5G] here?
**A.** 4.27

**Q.** Which protein stability index does the source give for VPGTHVGQGGKLWDPSVQSCKEGL [Q5H] here?
**A.** 4.63

**Q.** For VPGTAVGQGGKLWDPSVQSCKEGL [Q5A], which protein stability index is on record?
**A.** 4

**Q.** For VPGTIVGQGGKLWDPSVQSCKEGL [Q5I], which protein stability index is on record?
**A.** 4.16

**Q.** With VPGTSVGQGGKLWDPSVQSCKEGL [Q5S] as the variant, how does the protein stability index read?
**A.** 4.13

**Q.** For VPGTEVGQGGKLWDPSVQSCKEGL [Q5E], which protein stability index is on record?
**A.** 3.94

**Q.** With VPGTYVGQGGKLWDPSVQSCKEGL [Q5Y] as the variant, how does the protein stability index read?
**A.** 3.25

**Q.** Which protein stability index does the source give for VPGTRVGQGGKLWDPSVQSCKEGL [Q5R] here?
**A.** 4.2

**Q.** Which protein stability index does the source give for VPGTDVGQGGKLWDPSVQSCKEGL [Q5D] here?
**A.** 4.16

**Q.** For VPGTVVGQGGKLWDPSVQSCKEGL [Q5V], which protein stability index is on record?
**A.** 4.24

**Q.** Which protein stability index does the source give for VPGTWVGQGGKLWDPSVQSCKEGL [Q5W] here?
**A.** 4.15

**Q.** With VPGTCVGQGGKLWDPSVQSCKEGL [Q5C] as the variant, how does the protein stability index read?
**A.** 4.04

**Q.** Which protein stability index does the source give for VPGTFVGQGGKLWDPSVQSCKEGL [Q5F] here?
**A.** 3.3

**Q.** With IPGTQVGQGGKLWDPSVQSCKEGL [V1I] as the variant, how does the protein stability index read?
**A.** 4.31

**Q.** With YPGTQVGQGGKLWDPSVQSCKEGL [V1Y] as the variant, how does the protein stability index read?
**A.** 1.85

**Q.** For SPGTQVGQGGKLWDPSVQSCKEGL [V1S], which protein stability index is on record?
**A.** 4.19

**Q.** With GPGTQVGQGGKLWDPSVQSCKEGL [V1G] as the variant, how does the protein stability index read?
**A.** 4.05

**Q.** Which protein stability index does the source give for RPGTQVGQGGKLWDPSVQSCKEGL [V1R] here?
**A.** 4.08

**Q.** Which protein stability index does the source give for APGTQVGQGGKLWDPSVQSCKEGL [V1A] here?
**A.** 4.56

**Q.** For FPGTQVGQGGKLWDPSVQSCKEGL [V1F], which protein stability index is on record?
**A.** 1.64

**Q.** For TPGTQVGQGGKLWDPSVQSCKEGL [V1T], which protein stability index is on record?
**A.** 4.63

**Q.** For WPGTQVGQGGKLWDPSVQSCKEGL [V1W], which protein stability index is on record?
**A.** 4.23

**Q.** Which protein stability index does the source give for DPGTQVGQGGKLWDPSVQSCKEGL [V1D] here?
**A.** 4.85

**Q.** With QPGTQVGQGGKLWDPSVQSCKEGL [V1Q] as the variant, how does the protein stability index read?
**A.** 4.51

**Q.** With CPGTQVGQGGKLWDPSVQSCKEGL [V1C] as the variant, how does the protein stability index read?
**A.** 4.28

**Q.** Which protein stability index does the source give for HPGTQVGQGGKLWDPSVQSCKEGL [V1H] here?
**A.** 4.17

**Q.** With MPGTQVGQGGKLWDPSVQSCKEGL [V1M] as the variant, how does the protein stability index read?
**A.** 4.69

**Q.** Which protein stability index does the source give for EPGTQVGQGGKLWDPSVQSCKEGL [V1E] here?
**A.** 5.15

**Q.** Which protein stability index does the source give for PPGTQVGQGGKLWDPSVQSCKEGL [V1P] here?
**A.** 4.78

**Q.** Which protein stability index does the source give for NPGTQVGQGGKLWDPSVQSCKEGL [V1N] here?
**A.** 4.53

**Q.** Which protein stability index does the source give for LPGTQVGQGGKLWDPSVQSCKEGL [V1L] here?
**A.** 3.53

**Q.** With KPGTQVGQGGKLWDPSVQSCKEGL [V1K] as the variant, how does the protein stability index read?
**A.** 4.36

**Q.** With VPATQVGQGGKLWDPSVQSCKEGL [G3A] as the variant, how does the protein stability index read?
**A.** 4.21

**Q.** For VPETQVGQGGKLWDPSVQSCKEGL [G3E], which protein stability index is on record?
**A.** 4.88

**Q.** Which protein stability index does the source give for VPQTQVGQGGKLWDPSVQSCKEGL [G3Q] here?
**A.** 4

**Q.** With VPLTQVGQGGKLWDPSVQSCKEGL [G3L] as the variant, how does the protein stability index read?
**A.** 4.1

**Q.** Which protein stability index does the source give for VPCTQVGQGGKLWDPSVQSCKEGL [G3C] here?
**A.** 4.12

**Q.** Which protein stability index does the source give for VPITQVGQGGKLWDPSVQSCKEGL [G3I] here?
**A.** 4.3

**Q.** With VPWTQVGQGGKLWDPSVQSCKEGL [G3W] as the variant, how does the protein stability index read?
**A.** 3.77

**Q.** Which protein stability index does the source give for VPNTQVGQGGKLWDPSVQSCKEGL [G3N] here?
**A.** 4.3

**Q.** For VPTTQVGQGGKLWDPSVQSCKEGL [G3T], which protein stability index is on record?
**A.** 4.32

**Q.** For VPHTQVGQGGKLWDPSVQSCKEGL [G3H], which protein stability index is on record?
**A.** 4.28

**Q.** Which protein stability index does the source give for VPDTQVGQGGKLWDPSVQSCKEGL [G3D] here?
**A.** 4.96

**Q.** For VPMTQVGQGGKLWDPSVQSCKEGL [G3M], which protein stability index is on record?
**A.** 3.8

**Q.** Which protein stability index does the source give for VPRTQVGQGGKLWDPSVQSCKEGL [G3R] here?
**A.** 3.35

**Q.** For VPVTQVGQGGKLWDPSVQSCKEGL [G3V], which protein stability index is on record?
**A.** 3.99

**Q.** With VPFTQVGQGGKLWDPSVQSCKEGL [G3F] as the variant, how does the protein stability index read?
**A.** 3.01

**Q.** With VPYTQVGQGGKLWDPSVQSCKEGL [G3Y] as the variant, how does the protein stability index read?
**A.** 4.06

**Q.** Which protein stability index does the source give for VPSTQVGQGGKLWDPSVQSCKEGL [G3S] here?
**A.** 3.48

**Q.** Which protein stability index does the source give for VPPTQVGQGGKLWDPSVQSCKEGL [G3P] here?
**A.** 4.5

**Q.** With VPKTQVGQGGKLWDPSVQSCKEGL [G3K] as the variant, how does the protein stability index read?
**A.** 3.77

**Q.** With VVGTQVGQGGKLWDPSVQSCKEGL [P2V] as the variant, how does the protein stability index read?
**A.** 4.01

**Q.** With VKGTQVGQGGKLWDPSVQSCKEGL [P2K] as the variant, how does the protein stability index read?
**A.** 3.89

**Q.** For VDGTQVGQGGKLWDPSVQSCKEGL [P2D], which protein stability index is on record?
**A.** 4.12

**Q.** For VGGTQVGQGGKLWDPSVQSCKEGL [P2G], which protein stability index is on record?
**A.** 4.28

**Q.** For VFGTQVGQGGKLWDPSVQSCKEGL [P2F], which protein stability index is on record?
**A.** 3.99

**Q.** For VYGTQVGQGGKLWDPSVQSCKEGL [P2Y], which protein stability index is on record?
**A.** 2.83

**Q.** Which protein stability index does the source give for VWGTQVGQGGKLWDPSVQSCKEGL [P2W] here?
**A.** 3.12

**Q.** Which protein stability index does the source give for VTGTQVGQGGKLWDPSVQSCKEGL [P2T] here?
**A.** 3.86

**Q.** Which protein stability index does the source give for VNGTQVGQGGKLWDPSVQSCKEGL [P2N] here?
**A.** 4.18

**Q.** Which protein stability index does the source give for VCGTQVGQGGKLWDPSVQSCKEGL [P2C] here?
**A.** 3.61

**Q.** Which protein stability index does the source give for VSGTQVGQGGKLWDPSVQSCKEGL [P2S] here?
**A.** 3.55
